Measured values reported in the supplement of paper PMC10567573.

B1: ELF3 (parent)
chain: LSKEYWDCLEGKKSKHAPRGTHLW
B2: PLK2 (parent)
chain: YAELGQCSVFPATDAPEQFISQVT

Variants of: B1
Test: protein stability index of a GFP-peptide fusion (GPS, HEK-293T) (PSI 1-6); higher = more stable
Conditions: c terminus: a fixed tail appended
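Note: lentivirally expressed fusions sorted by FACS into six bins by GFP to DsRed ratio, PSI derived from sequencing read proportions per bin multiplied by bin number.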

Protein stability index of substitutions, site by site:
L1: P 1.86, I 2.37, Q 2.71, E 3.35, A 2.79, G 3.33, T 2.53, D 3.2, Y 2, K 3.02, S 2.67, V 2.77, N 2.63
P18: V 2.79, Q 2.96, K 3.39, S 3.13, R 2.34, Y 2.73, C 2.53, G 2.46, F 2.97, H 3.24, T 3.16, L 2.43
E4: V 2.53, F 2.13, S 2.38, L 2.06, G 1.99, W 1.58, P 2.35, Q 1.74, D 2.8, C 4.2, N 2.84, H 1.89
D7: K 2.41, W 1.89, C 2.32, Y 2.29, F 1.83, R 1.65, M 2.6, E 2.77, Q 3, L 2.26, T 2.76, G 2.15
A17: S 3.12, D 2.69, I 3.06, L 2.45, Q 3.4, H 2.5, C 3.33, R 2.38, K 2.86, E 3.58, V 3.02, G 3.65, N 2.99
G11: I 2.29, R 3.26, P 2.89, V 2.2, Y 2.58, C 2.27, Q 2.69, K 2.97, A 2.91, H 2.17, E 3.29, N 3.48, W 1.82, D 3.19, M 1.94
S14: C 2.1, Q 2.71, V 2.94, P 2.94, M 2.24, L 2.19, H 2.5, D 4.18, A 2.81, G 2.77, W 3.31
H22: W 1.95, V 2.43, I 2.42, K 2.99, Q 3.05, E 3.29, L 2.12, D 3.31, C 2.45, R 2.85, S 3.1
E10: L 1.82, N 2.55, C 2.07, H 2.15, W 2.08, R 1.86, I 1.61
Y5: Q 2.45, K 3.19, N 3.45, H 3.85, W 2.66, P 3.37, G 2.92, C 2.91, M 3.38, L 2.19, D 3.41
S2: C 2.29, V 2.36, L 1.91, N 3.13, P 2.99, Y 1.91, H 3.04, R 2.48, I 2.26
K15: T 3.26, D 3, G 2.56, V 2.64, C 2.29, Y 1.83, H 2.52, A 2.86, N 2.79, M 3.18, W 2.93, P 2.53
W24: R 3.54, L 3.3, E 4.33, V 2.96, A 3.96, N 3.64, Y 2.9, M 3.83, F 3.6, Q 3.8
G20: A 2.45, E 2.59, Y 2.78, N 2.74, M 2.44, R 2.64, I 1.54, H 2.53, C 2.73, D 2.96, V 2.11, Q 3.06
K3: Y 2.6, L 2.57, H 2.78, P 2.56, A 2.7, Q 2.13, R 2.93, W 2.35, N 2.97, C 2.55, T 2.83
C8: D 3.97, R 3.2, L 3.08, H 3.06, T 3.26, Q 2.95, Y 2.74, P 2.04, V 3.89, E 2.85, G 3.2, S 3.33
W6: C 3.38, H 2.33, E 3.66, D 3.93, S 3.44, Q 3.43, Y 3.22, N 3.42, R 3.39, G 2.84, A 3.6, F 3
H16: S 2.52, R 2.4, D 3.25, F 2.64, P 2.65, I 2.87, N 3.2, Y 3.54, E 3.14, W 2.24, C 2.64, L 2.68, K 3.05, M 2.3
K12: E 3.21, A 2.54, G 2.58, D 3.4, F 2.71, C 1.97, L 2.06, M 2.53, P 2.96, R 2.35, V 2.23, S 3.38
K13: H 2.87, L 2.64, R 2.87, F 2.74, Q 3.17, I 2.22, N 2.36, P 2.47, M 2.3, D 3.24, Y 2.82
L9: A 3.38, V 3.83, N 3.81, Q 3.71, T 2.93, G 3.65, D 3.22, Y 2.84, E 3.46, F 2.6, H 3.26, R 2.89
L23: N 3.29, R 3.25, P 3.13, H 3.42, Q 3.59, T 3.29, I 2.66, S 3.41, A 3.24, G 3.42, C 3.11, E 4.03, M 3.27, V 2.93
R19: L 2.27, N 2.83, Q 3.79, E 3.63, G 2.68, K 3.06, P 2.64, M 2.83, V 2.78, H 2.66, I 2.38, W 2.58
T21: W 2.04, V 1.8, S 2.24, Q 2.78, I 2.19, L 2.02, H 2.66, M 2.32, C 2.22, A 3.4, K 3.08, P 2.57

Variants of: B2
Test: as above
Conditions: c terminus: a fixed tail appended

Protein stability index: each site, then its substitutions
E3: K 2.17, N 2.08, I 1.63, G 1.85, F 1.94, P 2.27, C 2.21, R 2.09, M 1.97, D 2.19, H 1.93, A 1.85, L 1.43, Q 2.02
A2: C 1.92, S 3.15, D 4.09, E 4.46, W 2.5, Q 2.79, L 2.36, N 3.75, Y 2.43, M 2.46, F 2.32, P 3.42, V 2.15, K 3.47, H 2.57, G 3.29, R 3.6, T 2.25, I 1.64
Y1: N 4.46, V 3.56, S 4.09, M 3.63, A 4.32, E 4.52, K 4.16, Q 4.7, G 4.39, T 3.99, R 3.78, H 4, D 4.58, L 3.54, P 4.5, W 2.84, I 3.44, C 3.13, F 2.24
